Key:
[1] = molecular target: human big endothelin-1 (human) (UniProt P05305)
[2] = molecular target: human big endothelin-1 (human) (UniProt P05305); remark: listed apart in the source
[3] = molecular target: human big endothelin-1 (human) (UniProt P05305); remark: listed apart in the source

Sequence of UniProt P05305 (P05305 53-90 limits assumed): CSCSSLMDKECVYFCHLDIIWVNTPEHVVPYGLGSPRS

Molecule: secreted human ECE (extracellular domain of human ECE fused to the signal peptide of human t-PA) (enzyme)
- volume-based activity of the secreted ECE (µunits/ml of cell culture medium) [1]: < 10

Molecule: endothelin converting enzyme (ECE-1) purified from FBHE bovine endothelial cells
- Spec. activity [µU/mg] [2]: 15100 µU/mg

B1: recombinant membrane-bound human ECE (complete human ECE expressed from pcDNA3neo in mammalian cells, colony 38) (enzyme)
chain: MSTYKRATLDEEDLVDSLSEGDAYPNGLQVNFHSPRSGQRCWAARTQVEKRLVVLVVLLAAGLVACLAALGIQYQTRSPSVCLSEACVSVTSSILSSMDPTVDPCHDFFSYACGGWIKANPVPDGHSRWGTFSNLWEHNQAIIKHLLENSTASVSEAERKAQVYYRACMNETRIEELRAKPLMELIERLGGWNITGPWAKDNFQDTLQVVTAHYRTSPFFSVYVSADSKNSNSNVIQVDQSGLGLPSRDYYLNKTENEKVLTGYLNYMVQLGKLLGGGDEEAIRPQMQQILDFETALANITIPQEKRRDEELIYHKVTAAELQTLAPAINWLPFLNTIFYPVEINESEPIVVYDKEYLEQISTLINTTDRCLLNNYMIWNLVRKTSSFLDQRFQDADEKFMEVMYGTKKTCLPRWKFCVSDTENNLGFALGPMFVKATFAEDSKSIATEIILEIKKAFEESLSTLKWMDEETRKSAKEKADAIYNMIGYPNFIMDPKELDKVFNDYTAVPDLYFENAMRFFNFSWRVTADQLRKAPNRDQWSMTPPMVNAYYSPTKNEIVFPAGILQAPFYTRSSPKALNFGGIGVVVGHELTHAFDDQGREYDKDGNLRPWWKNSSVEAFKRQTECMVEQYSNYSVNGEPVNGRHTLGENIADNGGLKAAYRAYQNWVKKNGAEHSLPTLGLTNNQLFFLGFAQVWCSVRTPESSHEGLITDPHSPSRFRVIGSLSNSKEFSEHFRCPPGSPMNPPHKCEVW
- Spec. activity (µU/mg protein) (µU/mg protein) [3]: 12000
